Legend:
mouse serum albumin = target: T1, mouse serum albumin (mouse, UniProt P07724 25-608); assay: SPR, FcRn immobilized, 1:1 Langmuir model
T1 construct: mature; also called MSA; MouseSA
Description: SPR analyses were performed on a BIAcore 3000 instrument (GE Healthcare) using CM5 chips and immobilization of smFcRn-GST and shFcRn-GST variants or smFcRn was performed using the amine coupling kit (GE Healthcare). Protein samples (10 μg/ml) were injected in 10 mM sodium acetate at pH 4.5 (GE Healthcare), all as described by the manufacturer. Unreacted moieties on the surface were blocked with 1 M ethanolamine. For all experiments, phosphate buffer (67 mM phosphate buffer, 0.15 M NaCl, 0.005% TWEEN® 20) at pH 6.0 or pH 7.4, or HBS-P buffer (0.01 M HEPES, 0.15 M NaCl, 0.005% surfactant P20) at pH 7.4 were used as running buffer or dilution buffer. Kinetic measurements were performed using a low density immobilized surface (100-200 resonance units (RU)). […] In all cases, to correct for nonspecific binding and bulk buffer effects, responses obtained from the control surfaces and blank injections were subtracted from each interaction curve. Kinetic rate values were calculated using predefined models (Langmuir 1:1 ligand model, heterogeneous ligand model and steady state affinity model) provided by the BIAevaluation 4.1 software.
The KD's were generated using the B|Aevaluation 4.1 software) A Langmuir 1:1 ligand model was used throughout. The kinetic values represent the average or triplicates. ND means: Not determined. NA means: Not acquired

[1] = target: T2, glutathione-S-transferase (GST)-fused shFcRn (human, UniProt P55899 24-290; P61769 21-119, limits assumed); assay: ELISA: albumin coated at the concentration on the axis, shFcRn-GST in solution, pH 6.0
T2 construct: Made as in Berntzen et al. 2005 / FEBS J. 2008; also called shFcRn-GST; GST-tagged shFcRn; not shown: GST tag
T2 sequence (P55899 24-290 limits assumed, chain 1 of 2): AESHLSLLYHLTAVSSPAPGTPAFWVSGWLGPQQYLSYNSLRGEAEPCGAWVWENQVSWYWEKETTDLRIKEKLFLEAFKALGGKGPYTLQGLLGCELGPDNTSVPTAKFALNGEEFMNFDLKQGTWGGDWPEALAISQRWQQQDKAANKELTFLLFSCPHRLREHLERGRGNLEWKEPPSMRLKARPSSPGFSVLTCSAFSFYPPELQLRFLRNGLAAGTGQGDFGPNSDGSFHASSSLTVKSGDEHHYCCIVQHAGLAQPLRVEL
T2 sequence (P61769 21-119 limits assumed, chain 2 of 2): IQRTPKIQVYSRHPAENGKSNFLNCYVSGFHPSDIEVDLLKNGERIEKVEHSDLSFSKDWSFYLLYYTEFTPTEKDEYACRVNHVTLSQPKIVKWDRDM
Description: One hundred μl of the substrate tetramethylbenzidine (TMB) (Calbiochem) was added to each well and incubated for 45 min before 100 μl of 0.25 M HCl was added. The absorbance was measured at 450 nm using a Sunrise TECAN spectrophotometer (TECAN, Maennedorf, Switzerland). The same ELISA was repeated with PBS/T pH 7.4.
Commercially available animal albumin (either Sigma-Aldrich or Calbiochem) were further purified as described in Andersen et al (2010). J. Biol. Chem. 285, (7), 4826-4836.

Binder	Kd (mouse serum albumin) [µM]	koff (mouse serum albumin) [s⁻¹]	kon (mouse serum albumin) [M⁻¹ s⁻¹]	EC50 (read off the curve) [1] [µg/mL]
soluble mouse FcRn (smFcRn) (receptor) chain 1: SETRPPLMYHLTAVSNPSTGLPSFWATGWLGPQQYLTYNSLRQEADPCGAWMWENQVSWYWEKETTDLKSKEQLFLEALKTLEKILNGTYTLQGLLGCELASDNSSVPTAVFALNGEEFMKFNPRIGNWTGEWPETEIVANLWMKQPDAARKESEFLLNSCPERLLGHLERGRRNLEWKEPPSMRLKARPGNSGSSVLTCAAFSFYPPELKFRFLRNGLASGSGNCSTGPNGDGSFHAWSLLEVKRGDEHHYQCQVEHEGLAQPLTVDLDSSARSS chain 2: IQKTPQIQVYSRHPPENGKPNILNCYVTQFHPPHIEIQMLKNGKKIPKVEMSDMSFSKDWSFYILAHTEFTPTETDTYACRVKHASMAEPKTVYWDRDM	9.3	0.0394	4200	–
donkey serum albumin (ligand, UniProt Q5XLE4 25-607, looked up, mature) DTHKSEIAHRFNDLGEKHFKGLVLVAFSQYLQQCPFEDHVKLVNEVTEFAKKCAADESAENCDKSLHTLFGDKLCTVATLRATYGELADCCEKQEPERNECFLTHKDDHPNLPKLKPEPDAQCAAFQEDPDKFLGKYLYEVARRHPYFYGPELLFHAEEYKADFTECCPADDKAGCLIPKLDALKERILLSSAKERLKCSSFQKFGERAFKAWSVARLSQKFPKADFAEVSKIVTDLTKVHKECCHGDLLECADDRADLTKYICEHQDSISGKLKACCDKPLLQKSHCIAEVKEDDLPSDLPALAADFAEDKEICKHYKDAKDVFLGTFLYEYSRRHPDYSVSLLLRIAKTYEATLEKCCAEADPPACYATVFDQFTPLVEEPKSLVKKNCDLFEEVGEYDFQNALIVRYTKKAPQVSTPTLVEIGRTLGKVGSRCCKLPESERLPCSENHLALALNRLCVLHEKTPVSEKITKCCTDSLAERRPCFSALELDEGYIPKEFKAETFTFHADICTLPEDEKQIKKQSALAELVKHKPKATKEQLKTVLGNFSAFVAKCCGAEDKEACFAEEGPKLVASSQLALA	–	–	–	~1
